Source: US20180355061A1 (Janssen / Centocor, published 2018)
Positions count from the first letter of the chain named. In names and notes the source's numbering stands. Each block holds one binder with its values, some of them ahead of it.

Tests used:
[1] = molecular target: T1, human PD-1 (soluble analyte in SPR) (human, UniProt Q15116 25-170, limits assumed); experiment: SPR (ProteOn XPR36), mAb from crude supernatant captured on anti-human IgG Fc, PD-1 as analyte, 25 C
T1 construct: also called CD279; PDCD1

[2] = molecular target: T1, human PD-1 (soluble analyte in SPR); experiment: SPR (ProteOn XPR36), mAb captured on anti-human IgG Fc, PD-1 as analyte, 25 C
Procedure: (§1) Affinity measurements were performed using a ProteOn XPR36 system (BioRad). […] Approximately 5000 RU (response units) of mAbs were immobilized. The kinetic experiments were performed at 25° C. in running buffer (DPBS+0.01% P20+100 μg/mL BSA). To perform kinetic experiments, 200 RU of mAbs were captured followed by injections of analytes (human and cyno PD-1) at concentrations ranging from 1.563 nM to 400 nM (in a […] serial dilution). The association phase was monitored for 3 minutes at 50 μL/min, then followed by 10 or 15 minutes of buffer flow (dissociation phase). The chip surface was regenerated with two 18 second pulses of 100 mM H₃PO₄ (Sigma, Cat #7961) at 100 μL/min.
(§2) The collected data were processed using ProteOn Manager software. First, the data was corrected for background using inter-spots. Then, double reference subtraction of the data was performed by using the buffer injection for analyte injections. The kinetic analysis of the data was performed using a Langmuir 1:1 binding model. The result for each mAb was reported in the format of ka (On-rate), kd (Off-rate) and KD (equilibrium dissociation constant).
Affinity of the parental and humanized antibodies to PD-1 was measured using SPR as described in Example 1.

[3] = molecular target: T2, cyno PD-1 (soluble analyte in SPR) (cyno); experiment: SPR (ProteOn XPR36), mAb captured on anti-human IgG Fc, cyno PD-1 as analyte, 25 C
T2 construct: also called cynomolgus PD-1
Procedure: as §1, §2
(§3) Affinity of the antibodies to human and cyno PD-1 was measured using SPR as described in Example 1.

[4] = molecular target: T1, human PD-1 (soluble analyte in SPR); experiment: SPR (ProteOn XPR36), mAb captured on anti-human IgG Fc, human PD-1 as analyte, 25 C
Procedure: as §1, §2, §3

[5] = molecular target: T3, biotinylated Human PD-1/PDCD1 (Acro Biosystems. Cat #PD1-H82E4) (human, UniProt Q15116 25-167, biotinylated); experiment: Fab ELISA: Fab captured by anti-Fd(CH1), biotinylated human PD-1 at 5 nM, streptavidin-HRP chemiluminescence; reference parental PD1B878 Fab
T3 construct: Bought reagent, construct not described
Procedure: For follow-up screening, plasmid DNA was prepared from overnight culture of the TG-1 Escherichia coli cells and the pIX gene was excised by NheI/SpeI digestion. After ligation, the DNA was transformed into TG-1 cells and grown on LB/Agar plates overnight. The next day, colonies were picked, grown overnight, and the cultures used for (i) colony sequencing of the V-regions, and (ii) induction of Fab production. For Fab production, the overnight culture was diluted 100 folds in new media and grown for 5-6 hours at 37° C. Fab production was induced by the addition of fresh media containing IPTG and the cultures were grown overnight at 30° C. The following day, the cultures were spun down and the supernatants, containing the soluble Fab proteins, were used for Fab ELISA. For the ELISA, the soluble Fab proteins were captured onto plates by a polyclonal anti-Fd(CH1) antibody. After washing and blocking, biotinylated Human PD-1/PDCD1 was added at 5 nM concentration. This concentration enabled ranking of the Fab variants, defined as fold change versus the parent, in which the parental Fab, present as a control in all plates, is defined as 100% binding. The biotinylated human PD-1 was detected by HRP-conjugated streptavidin with chemiluminescence measured in a plate reader.

T3 sequence (Q15116 25-167 limits assumed): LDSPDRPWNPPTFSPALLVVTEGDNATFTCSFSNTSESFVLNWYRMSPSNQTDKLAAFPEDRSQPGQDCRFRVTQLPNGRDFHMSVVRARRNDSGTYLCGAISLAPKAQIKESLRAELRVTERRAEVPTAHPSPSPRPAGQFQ
T1 sequence (Q15116 25-170 limits assumed): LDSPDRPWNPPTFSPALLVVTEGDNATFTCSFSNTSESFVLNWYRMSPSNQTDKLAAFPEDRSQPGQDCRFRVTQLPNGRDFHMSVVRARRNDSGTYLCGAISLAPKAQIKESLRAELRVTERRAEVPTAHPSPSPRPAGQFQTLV

B3: PD1B850 (antibody, human IgG1, kappa, V domains shown)
VH: QVQLVQSGAEVKKPGASVKVSCKASGYTFTTYWMHWVRQAPGQGLEWMGEINPNNIGINYAQKFQGRVTLTVDKSISTAYMELSRLRSDDTAVYYCTIDYYDYGGYWGQGTLVTVSS
VL: DIQMTQSPSSLSASVGDRVTITCKASQNVGTNVAWYQQKPEKAPKSLIYSASYRYSGVPSRFSGSGSGTDFTLTISSLQPEDFATYYCQQYNIYPYTFGQGTKLEIKR
notes: G56I variant of PD1B750, IgG1; tested as crude supernatant in SPR; also called VH PD1H404; VL PD1L470
Kd [1]: 23 nM | koff [1]: 0.00719 s⁻¹ | kon [1]: 313000 M⁻¹ s⁻¹

B4: PD1B848 (antibody, human IgG1, kappa, V domains shown)
VH: B3 VH with N55K, I56G
VL: B3 VL
notes: N55K variant of PD1B750, IgG1; tested as crude supernatant in SPR; also called VH PD1H402; VL PD1L470
Kd [1]: 39.2 nM | koff [1]: 0.00991 s⁻¹ | kon [1]: 253000 M⁻¹ s⁻¹

B5: PD1B846 (antibody, human IgG1, kappa, V domains shown)
VH: B3 VH with N55D, I56A
VL: B3 VL
notes: N55D, G56A variant of PD1B750, IgG1; tested as crude supernatant in SPR; also called VH PD1H400; VL PD1L470
Kd [1]: 21.6 nM | koff [1]: 0.00753 s⁻¹ | kon [1]: 349000 M⁻¹ s⁻¹

B8: PD1B506 (antibody, human IgG1, kappa, V domains shown)
VH: QVQLQQPGAELVKPGASVKLSCKASGYTFTTYWMHWVKQRPGQGLEWIGEINPNNGGINYNEKFKKKATLTVDKSSSTAYMQLSSLTSEDSAVYYCTIDYYDYGGYWGQGTTLTVSS
VL: DIVMTQSQKFMSTSVRDRVSVTCKASQNVGTNVAWYQQKPGQSPKALIYSASYRYSGVPDRFTGSGSGTDFTLTITNVQSEDLAEYFCQQYNIYPYTFGSGTKLEMKR
notes: Parental mouse antibody cloned as chimeric human IgG1; Bin 5; also called VH PD1H90; VL PD1L28
Kd [2]: 52.4 nM | koff [2]: 0.0102 s⁻¹ | kon [2]: 195000 M⁻¹ s⁻¹

B10: Fab variant of PD1B878 with VH PD1H585 (E57Y) (Fab, V domains shown)
VH: QVQLVQSGSELKKPGASVKVSCKASGYTFTDYSMHWVRQAPGQGLEWMGWINIETGYPTYAQGFTGRFVFSLDTSVSTAYLQISSLKAEDTAVYFCARDYYGTYFYAMDYWGQGTLVTVSS
VL: EIVLTQSPATLSLSPGERATLSCTASSSVSSSYLHWYQQKPGLAPRLLIYSTSNLASGIPDRFSGSGSGTDYTLTISRLEPEDFAVYYCHQYHRSPLTFGQGTKLEIK
notes: Soluble Fab in E. coli supernatant; pairing with the parental VL inferred from the non-combinatorial library design
fold binding relative to parental Fab [5]: ≥ 10 fold

B12: Fab variant of PD1B878 with VH PD1H586 (E57H) (Fab, V domains shown)
VH: B10 VH with Y57H
VL: B10 VL
notes: Soluble Fab in E. coli supernatant; pairing with the parental VL inferred
fold binding relative to parental Fab [5]: ≥ 10 fold

B13: PD1B1092 (antibody, human IgG1, kappa, V domains shown)
VH: B10 VH with Y57W
VL: EIVLTQSPATLSLSPGERATLSCTASSSFSSSYLHWYQQKPGLAPRLLIYSTSNLASGIPDRFSGSGSGTDYTLTISRLEPEDFAVYYCHQYHRSPLTFGQGTKLEIKR
notes: also called VH PD1H587; VL PD1L651
Kd [3]: 3.18 nM | koff [3]: 0.000411 s⁻¹ | kon [3]: 129000 M⁻¹ s⁻¹ | Kd [4]: 0.214 nM | koff [4]: 3e-05 s⁻¹ | kon [4]: 140000 M⁻¹ s⁻¹

B14: PD1B1087 (antibody, human IgG1, kappa, V domains shown)
VH: B10 VH with Y57W
VL: B13 VL with F29V
notes: also called VH PD1H587; VL PD1L469
Kd [3]: 11.6 nM | koff [3]: 0.00247 s⁻¹ | kon [3]: 212000 M⁻¹ s⁻¹ | Kd [4]: 1.44 nM | koff [4]: 0.000239 s⁻¹ | kon [4]: 166000 M⁻¹ s⁻¹

B16: PD1B1091 (antibody, human IgG1, kappa, V domains shown)
VH: B10 VH with Y57H
VL: B13 VL
notes: also called VH PD1H586; VL PD1L651
Kd [3]: 9.32 nM | koff [3]: 0.000924 s⁻¹ | kon [3]: 99100 M⁻¹ s⁻¹ | Kd [4]: 0.83 nM | koff [4]: 6.44e-05 s⁻¹ | kon [4]: 77700 M⁻¹ s⁻¹

B17: PD1B1089 (antibody, human IgG1, kappa, V domains shown)
VH: B10 VH with Y57E
VL: B13 VL with F29V, S30P
notes: also called VH PD1H405; VL PD1L652
Kd [3]: 90 nM | koff [3]: 0.00839 s⁻¹ | kon [3]: 93200 M⁻¹ s⁻¹ | Kd [4]: 8.09 nM | koff [4]: 0.000474 s⁻¹ | kon [4]: 58600 M⁻¹ s⁻¹

B18: Fab variant of PD1B878 with VL PD1L651 (V29F) (Fab, V domains shown)
VH: B10 VH with Y57E
VL: B10 VL with V29F
notes: Soluble Fab in E. coli supernatant; pairing with the parental VH inferred
fold binding relative to parental Fab [5]: ≥ 10 fold

B19: Fab variant of PD1B878 with VH PD1H587 (E57W) (Fab, V domains shown)
VH: B10 VH with Y57W
VL: B10 VL
notes: as for B12
fold binding relative to parental Fab [5]: ≥ 10 fold

B20: PD1B1095 (antibody, human IgG1, kappa, V domains shown)
VH: B10 VH with Y57W
VL: B13 VL with F29V, S30P
notes: also called VH PD1H587; VL PD1L652
Kd [3]: 4.23 nM | koff [3]: 0.000781 s⁻¹ | kon [3]: 185000 M⁻¹ s⁻¹ | Kd [4]: 0.471 nM | koff [4]: 7.12e-05 s⁻¹ | kon [4]: 151000 M⁻¹ s⁻¹

B21: PD1B1088 (antibody, human IgG1, kappa, V domains shown)
VH: B10 VH with Y57E
VL: B13 VL
notes: also called VH PD1H405; VL PD1L651
Kd [3]: 72.4 nM | koff [3]: 0.00479 s⁻¹ | kon [3]: 66100 M⁻¹ s⁻¹ | Kd [4]: 10.9 nM | koff [4]: 0.000341 s⁻¹ | kon [4]: 31300 M⁻¹ s⁻¹

Continued, values first:

Kd [1]: 24 nM | koff [1]: 0.00843 s⁻¹ | kon [1]: 351000 M⁻¹ s⁻¹
B1: PD1B845 (antibody, human IgG1, kappa, V domains shown)
VH: B3 VH with I56A
VL: B3 VL
notes: G56A variant of PD1B750, IgG1; tested as crude supernatant in SPR; also called VH PD1H399; VL PD1L470

Kd [1]: 24.6 nM | koff [1]: 0.00744 s⁻¹ | kon [1]: 303000 M⁻¹ s⁻¹
B2: PD1B847 (antibody, human IgG1, kappa, V domains shown)
VH: B3 VH with N55Q, I56G
VL: B3 VL
notes: N55Q variant of PD1B750, IgG1; tested as crude supernatant in SPR; also called VH PD1H401; VL PD1L470

Kd [2]: 47.1 nM | koff [2]: 0.00883 s⁻¹ | kon [2]: 188000 M⁻¹ s⁻¹
B6: PD1B849 (antibody, human IgG1, kappa, V domains shown)
VH: B3 VH with N55E, I56G
VL: B3 VL
notes: N55E variant of PD1B750, IgG1; also called VH PD1H403; VL PD1L470

Kd [2]: 29.1 nM | koff [2]: 0.00236 s⁻¹ | kon [2]: 81100 M⁻¹ s⁻¹
B7: PD1B505 (antibody, human IgG1, kappa, V domains shown)
VH: DVQLQESGPELKKPGETVKISCKASGYTFTDYSMHWVKQAPGKGLKWMGWINIETGEPTYADDFKGRFAFSLETSASTAYLQINNLKNEDTATYFCARDYYGTYFYAMDYWGQGTTLTVSS
VL: QIVLTQSPAIMSASLGERVTMTCTASSSVSSSYLHWYQQKPGSSPKLWIYSTSNLASGVPARFSGSGSGTSYSLTISSMEAEDAATYYCHQYHRSPLTFGAGTKLELKR
notes: Parental mouse antibody cloned as chimeric human IgG1; Bin 1; also called VH PD1H93; VL PD1L30

Kd [3]: 6.45 nM | koff [3]: 0.00129 s⁻¹ | kon [3]: 200000 M⁻¹ s⁻¹ | Kd [4]: 0.911 nM | koff [4]: 0.000142 s⁻¹ | kon [4]: 156000 M⁻¹ s⁻¹
B9: PD1B1085 (antibody, human IgG1, kappa, V domains shown)
VH: B10 VH
VL: B13 VL with F29V
notes: also called VH PD1H585; VL PD1L469

Kd [3]: 2.18 nM | koff [3]: 0.000368 s⁻¹ | kon [3]: 169000 M⁻¹ s⁻¹ | Kd [4]: 0.349 nM | koff [4]: 4.36e-05 s⁻¹ | kon [4]: 125000 M⁻¹ s⁻¹
B11: PD1B1093 (antibody, human IgG1, kappa, V domains shown)
VH: B10 VH
VL: B13 VL with F29V, S30P
notes: also called VH PD1H585; VL PD1L652

fold binding relative to parental Fab [5]: ≥ 10 fold
B15: Fab variant of PD1B878 with VL PD1L652 (S30P) (Fab, V domains shown)
VH: B10 VH with Y57E
VL: B10 VL with S30P
notes: as for B18
